Source: patent US20170319648A1
Positions of bridges follow the written chain, without caps; N, C: chain ends. Non-standard residues stand in square brackets, D forms with d. No end group written: not given here. hCys = N[C@@H](CCS)C(=O)O; Orn = NCCC[C@H](N)C(=O)O; Dab = NCC[C@H](N)C(=O)O

Molecular target: TEAD
Experiment: IC50 for TEAD binding; method not named in the example (TR-FRET test is the filing's screening method)

Chain of TEAD (P28347 209-426): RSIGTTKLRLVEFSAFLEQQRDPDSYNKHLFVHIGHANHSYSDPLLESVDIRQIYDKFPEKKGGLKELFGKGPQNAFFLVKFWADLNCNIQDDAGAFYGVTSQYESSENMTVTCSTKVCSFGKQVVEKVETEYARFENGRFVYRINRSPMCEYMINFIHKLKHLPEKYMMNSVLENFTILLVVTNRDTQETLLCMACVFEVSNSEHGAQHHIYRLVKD

| IC50 [nM] | Binder |
| --- | --- |
| 43 | VPF[hCys]LR[Orn]LPDSFCKPPE (disulfide 4-13) [polypeptide of SEQ ID NO.: 5 (VPF(Hcy)LR(Orn)…)] |
| 28 | VPF[hCys]LR[Dab]LPDSFCKPPE (disulfide 4-13) [polypeptide of SEQ ID NO.: 6 (VPF(Hcy)LR(Dab)…)] |
